Experiment [1] has as its target T1, human Fn14, full-length, expressed on the cell surface (human, UniProt Q9NP84 28-129).
T1 construct: Also used for Fn14 on tumour cell lines (WiDr, A375) and in tissue sections; also called huFn14; hu Fn14
Description: FACS dilution titration on 293E cells transiently overexpressing human Fn14; value is C (midpoint) of the printed 4-P fit y=(A-D)/(1+(x/C)^B)+D, x in ug/ml.

Experiment [2] deals with T2, huFn14-huFc fusion protein (human, UniProt Q9NP84 28-80).
T2 construct: also called hFn14-hFc; bivalent Fn14-Fc; not shown: human Fc
Nature of the experiment: competition ELISA on coated huFn14-huFc against a constant amount of biotinylated murine P4A8, OD450; value is C (midpoint) of the printed 4-P fit, x in ng/ml. Background: ELISA stands for enzyme-linked immunosorbent assay.

Experiment [3] addresses T1, human Fn14, full-length, expressed on …. Nature of the experiment: FACS on WiDr cells.
For another experiment, the target named is T3, mouse Fn14-mouse Fc (mouse, UniProt Q9CR75 28-80).
T3 construct: not shown: mouse Fc
Description: direct binding ELISA, mouse Fn14-mouse Fc coated at 2 µg/ml, HRP-goat anti-human IgG.

Experiment [4] concerns the target T4, soluble monomeric human Fn14 protein (ectodomain with myc and His tags) (human).
T4 construct: also called soluble Fn14 protein; soluble human Fn14
Nature of the experiment: SPR (Biacore), antibody amine-coupled on CM5, soluble monomeric human Fn14 0.3-30 nM as analyte, 1:1 fit.
Description: (§1) Briefly, proteins were diluted to 30 μg/ml in 10 mM acetate, pH 5.0 and 10 μl was injected over chip surfaces that had been activated with a 10 μl injection of 1:1 N-hydroxsuccinimide (NHS): 1-Ethyl-3(3-dimethylaminopropyl)-carbodiimide hydrochloride (EDC). In addition one flow cell in each experiment was left underivitized as a background control. Excess free amine groups were then capped with a 50 μl injection of 1 M Ethanolamine. Typical immobilization levels were ˜1200 RU.
(§2) Concentration series ranging from 0.3 to 30 nM, of human Fn14 were prepared in Biacore buffer #1 (10 mM HEPES pH 7.0+150 mM NaCl+3.4 mM EDTA+0.005% P-20 detergent+0.05% BSA). The amino acid sequence of the soluble Fn14 protein used in these experiments was [sequence] [sequence]. Samples were run over antibody and control surfaces in non-sequential order at a flow rate of 50 μl/min for 5 minutes followed by 15 minutes dissociation in Biacore buffer #1. After each cycle the chip was regenerated with 15 mM NaOH.
(§3) Raw data were normalized by setting the preinjection response to zero on the Y-axis and the injection start to zero on the X-axis for each concentration series. Data were further normalized by subtracting the response on the underivitized surface from the response on the active surfaces and then subtracting the buffer only response on the active surface from the binding data on the same surface (so-called ‘double referencing’ of the data). The global association and dissociation rate constants were then determined for each concentration series by fitting the data using a Marquardt-Levenberg algorithm for 1:1 binding within the Biaevaluation software. The affinity constant was calculated from the ratio of the rate constants (KD=kd/kₐ).

Experiment [5] has as its target T4, soluble monomeric human Fn14 protein …. Nature of the experiment: SPR (Biacore), antibody amine-coupled on CM5, soluble monomeric human Fn14 0.3-30 nM as analyte, KD = kd/ka. In general terms: Surface plasmon resonance follows binding to a sensor surface in real time, without labels.
Description: as §1, §2, §3
Experiment [6] deals with T5, rat Fn14, full-length, expressed on the cell surface (rat, UniProt Q9CR75 28-129 (mouse entry)).
T5 construct: also called pEAG2275
Nature of the experiment: FACS direct binding titration on surface rat Fn14; value is C (midpoint) of the printed 4-P fit y=(A-D)/(1+(x/C)^B)+D, x in ng/ml.
Description: (§4) Cells were used in FACS at 2 days post-transfection, staining with monoclonal antibodies of interest (with dilution titration) and gating on green EGFP-positive living cells.

Experiment [7] addresses T1, human Fn14, full-length, expressed on …. Description: FACS direct binding titration on surface human Fn14; value is C (midpoint) of the printed 4-P fit y=(A-D)/(1+(x/C)^B)+D, x in ng/ml.
Description: as §4
The target in experiment [8] is T6, human Fn14 M50A, expressed on the cell surface (human, UniProt Q9NP84 28-129).
T6 construct: also called pYL396
Nature of the experiment: FACS direct binding, cells expressing the huFn14 construct, MFI.
Description: (§5) A panel of huFn14 point mutants was made by substituting Xenopus residues into the human sequence at a number positions by site-directed mutagenesis on the pEAG2121 template (EBV expression vector for huFn14): pYL391 T33Q, pYL392 S40R, pYL393 L65Q, pYL396 M50A, pYL397 R56K, pYL398 R56P (a more drastic substitution than the Xenopus change) and pYL399 H60K.

Experiment [9] deals with T7, human Fn14 R56K, expressed on the cell surface (human, UniProt Q9NP84 28-129).
T7 construct: also called pYL397
The description is as above.
Description: as §5

The target in experiment [10] is T5, rat Fn14, full-length, expressed on the …. Description: direct binding FACS.
Description: as §4, §5
For experiment [11], the target named is T8, mouse Fn14, full-length, expressed on the cell surface (mouse, UniProt Q9CR75 28-129).
T8 construct: also called murine Fn14; mu Fn14
Nature of the experiment: FACS titration on cells expressing surface Fn14, MFI against ng/ml anti-Fn14 mab.
Description: as §4

For experiment [12], the target named is T8, mouse Fn14, full-length, expressed on …. Nature of the experiment: FACS direct binding titration on murine surface Fn14 (target per legend paragraph 91), MFI.
Description: as §4
Experiment [13] addresses T9, cynomolgus monkey Fn14, full-length, expressed on the cell surface (cynomolgus monkey, UniProt Q9NP84 28-129 (human entry)).
T9 construct: also called cyno Fn14; pEAG2120
Nature of the experiment: FACS direct binding titration on surface Fn14, MFI.
Description: as §4

Experiment [14] deals with T10, human Fn14 W42A, expressed on the cell surface (human, UniProt Q9NP84 28-129).
T10 construct: also called huFn14 W42A; pEAG2251
Nature of the experiment: FACS direct binding, cells expressing the huFn14 construct, MFI.
Description: as §5

The target of experiment [15] is T11, human Fn14 T33Q, expressed on the cell surface (human, UniProt Q9NP84 28-129).
T11 construct: also called pYL391
Described as above.
Description: as §5

In experiment [16] the target is T12, human Fn14 S40R, expressed on the cell surface (human, UniProt Q9NP84 28-129).
T12 construct: also called pYL392
Described as above.
Description: as §5

Experiment [17] concerns the target T13, human Fn14 L65Q, expressed on the cell surface (human, UniProt Q9NP84 28-129).
T13 construct: also called pYL393
The experiment is described as above.
Description: as §5

Experiment [18] deals with T6, human Fn14 M50A, expressed on the cell …. The description is as above. The source holds these as a separate data set.
Description: as §5
Experiment [19] concerns the target T14, human Fn14 R56P, expressed on the cell surface (human, UniProt Q9NP84 28-129).
T14 construct: also called pYL398
The experiment is described as above.
Description: as §5

The target of experiment [20] is T15, human Fn14 H60K, expressed on the cell surface (human, UniProt Q9NP84 28-129).
T15 construct: also called pYL399
The description is as above.
Description: as §5

Positions count from the first letter of the chain named. In names and notes the source's numbering stands. Several values for one entry are separate records, joined by “and”; a condition that tells them apart may be missing. Identical values can stand only once. Like-named read-outs stand apart in the source and are kept apart here.

As a reminder, the EC50 is the concentration at which the effect is half-maximal. One may read the IC50 as the concentration needed to halve the response being measured. Broadly, the koff is a measure of how fast the partners let go of each other. As a reminder, the kon is the rate constant with which the complex forms. For orientation: Kd means the free concentration of one partner at which half of the binding sites on the other are occupied at equilibrium, for simple one-to-one binding.

Description for mouse Fn14-mouse Fc: 96 well ELISA plate was coated with 2 μg/ml of mouse Fn14-mouse Fc in sodium carbonate pH 9.5 overnight at 4° C. Plate was blocked with 3% BSA in PBS for 1 hour at room temperature.

B1: humanized P4A8 (H1/L2) huIgG1, kappa (antibody, V domains shown)
VH: QVQLVQSGAEVKKPGASVKVSCKGSGYTFTDYGMHWVRQAPGQGLEWMGVISTYNGYTNYNQKFKGRVTMTVDKSTSTAYMELRSLRSDDTAVYYCARAYYGNLYYAMDYWGQGTLVTVSS
VL: DIVLTQSPASLAVSLGQRATISCRASKSVSTSSYSYMHWYQQKPGQPPKLLIKYASNLESGVPARFSGSGSGTDFILNIHPMEEDDTAMYFCQHSRELPFTFGGGTKLEIKR
notes: One of the 'six versions of huP4A8' (two heavy chains by three light chains) expressed transiently in 293E cells; also called version of huP4A8 H1/L2
In turn, B1 came in with a half-maximal effective concentration (EC50) in [1] of 0.178 µg/mL. Further, the IC50 in experiment [2] is 0.0408 µg/mL.

B2: humanized P4A8 (H1/L3) huIgG1, kappa (antibody, V domains shown)
VH: B1 VH
VL: B1 VL with M89T, F91Y
notes: One of the 'six versions of huP4A8'; also called version of huP4A8 H1/L3
Regarding B2, the EC50 in experiment [1] was 0.172 µg/mL. The molecule also registered an IC50 in experiment [2] of 0.0316 µg/mL.

B3: humanized P4A8 (H1/L1) huIgG1, kappa (antibody)
heavy: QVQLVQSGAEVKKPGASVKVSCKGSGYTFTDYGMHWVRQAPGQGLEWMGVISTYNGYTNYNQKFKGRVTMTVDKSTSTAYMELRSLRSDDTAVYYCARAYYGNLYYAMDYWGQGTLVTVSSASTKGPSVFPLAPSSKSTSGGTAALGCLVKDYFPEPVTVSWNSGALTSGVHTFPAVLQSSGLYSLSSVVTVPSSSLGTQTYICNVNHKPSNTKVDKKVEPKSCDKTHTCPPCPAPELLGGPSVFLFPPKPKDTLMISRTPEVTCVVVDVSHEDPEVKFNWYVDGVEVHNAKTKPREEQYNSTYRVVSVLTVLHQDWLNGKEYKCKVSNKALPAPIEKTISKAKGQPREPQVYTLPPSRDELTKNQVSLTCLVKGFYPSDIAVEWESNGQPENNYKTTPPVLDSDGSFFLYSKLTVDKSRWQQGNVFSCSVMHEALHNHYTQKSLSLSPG
light: DIVLTQSPASLAVSLGQRATISCRASKSVSTSSYSYMHWYQQKPGQPPKLLIKYASNLESGVPARFSGSGSGTDFSLNIHPMEEDDTAMYFCQHSRELPFTFGGGTKLEIKRTVAAPSVFIFPPSDEQLKSGTASVVCLLNNFYPREAKVQWKVDNALQSGNSQESVTEQDSKDSTYSLSSTLTLSKADYEKHKVYACEVTHQGLSSPVTKSFNRGEC
notes: H1 heavy chain (pYL310) with L1 kappa light chain (pYL321); also called huP4A8; hP4A8.IgG1
Take B3: the EC50 is 0.12 nM in [3]; roughly 0.00679 µg/mL in the experiment with mouse Fn14-mouse Fc; 0.0586 µg/mL in experiment [6]; 0.0766 µg/mL in [7]; 0.25 µg/mL in [1]. Moreover, the off-rate constant (koff) in [4] is 0.0029 s⁻¹ and 0.003 s⁻¹. The kon in experiment [4] was 1.7e+06 M⁻¹ s⁻¹ and 1.8e+06 M⁻¹ s⁻¹. The Kd in experiment [5] is 2.6 nM and 1.7 nM. The same molecule had an IC50 in experiment [2] of 0.0352 µg/mL.

B4: humanized P4A8 (H2/L2) huIgG1, kappa (antibody, V domains shown)
VH: B1 VH with M48I, V68A
VL: B1 VL
notes: One of the 'six versions of huP4A8'; also called version of huP4A8 H2/L2
Molecule B4 displayed an EC50 in experiment [1] of 0.179 µg/mL. Moreover, in experiment [2], the IC50 is 0.0326 µg/mL.

B5: humanized P4A8 (H2/L1) huIgG1, kappa (antibody, V domains shown)
VH: B1 VH with M48I, V68A
VL: B1 VL with I76S
notes: One of the 'six versions of huP4A8'; also called version of huP4A8 H2/L1
Molecule B5 had a concentration giving a half-maximal response (EC50) in experiment [1] of 0.175 µg/mL. For the same molecule, the IC50 in experiment [2] was determined as 0.0275 µg/mL.

B6: humanized P4A8 (H2/L3) huIgG1, kappa (antibody, V domains shown)
VH: B1 VH with M48I, V68A
VL: B1 VL with M89T, F91Y
notes: One of the 'six versions of huP4A8'; also called version of huP4A8 H2/L3
B6: in experiment [1], it took 0.175 µg/mL to reach a half-maximal effect (EC50). Further, in experiment [2], the half-inhibitory concentration (IC50) was found to be 0.0357 µg/mL.

B7: monoclonal antibody 1.P4A8.3C7 (P4A8), murine (antibody, V domains shown)
VH: QVQLQQSGPEVVRPGVSVKISCKGSGYTFTDYGMHWVKQSHAKSLEWIGVISTYNGYTNYNQKFKGKATMTVDKSSSTAYMELARLTSEDSAIYYCARAYYGNLYYAMDYWGQGTSVTVSS
VL: DIVLTQSPASLAVSLGQRATISCRASKSVSTSSYSYMHWYQQKPGQPPKLLIKYASNLESGVPARFSGSGSGTDFILNIHPVEEEDAATYYCQHSRELPFTFGSGTKLEIK
notes: Mouse hybridoma mAb (ATCC PTA-9947); also called muP4A8; murine P4A8 mAb
With B7, the binding result in experiment [8] and in experiment [9] was “binds” in each case.

B8: monoclonal antibody 1.P2D3.3D5 (P2D3), murine (antibody, V domains shown)
VH: not shown
VL: B7 VL with A55T, F100W, S104G
notes: Mouse hybridoma mAb (ATCC PTA-9948)
As to B8, the binding result in experiment [10] is reported as “binds”. Moreover, the concentration giving a half-maximal response (EC50) stood at 0.00478 µg/mL in [11] and 0.00226 µg/mL in experiment [12].

B9: monoclonal antibody P3D8, murine (antibody, V domains shown)
VH: not shown
VL: B7 VL with A55T, F100W, S104G
For B9, in experiment [10], the binding result is reported as “binds”. The molecule also displayed a concentration giving a half-maximal response (EC50) in experiment [12] of 0.00238 µg/mL.

B10: monoclonal antibody 1.P3G5.1E4 (P3G5), murine (antibody, V domains shown)
VH: B7 VH with M34I
VL: B7 VL with S26N
notes: Mouse hybridoma mAb (ATCC PTA-9949)
Consider B10, for which the binding result in [10], in [14], in experiment [15], in experiment [16], in [17] and in experiment [18] was “binds” in each case. The binding result in experiment [19] and in experiment [20] was “binds” in each case. Further, the values for the EC50 in experiment [13] and in experiment [12] were 0.00119 µg/mL and 0.00201 µg/mL, respectively.

B11: humanized P4A8 (H1/L1) aglycosylated S228P/T299A huIgG4, kappa (antibody)
heavy: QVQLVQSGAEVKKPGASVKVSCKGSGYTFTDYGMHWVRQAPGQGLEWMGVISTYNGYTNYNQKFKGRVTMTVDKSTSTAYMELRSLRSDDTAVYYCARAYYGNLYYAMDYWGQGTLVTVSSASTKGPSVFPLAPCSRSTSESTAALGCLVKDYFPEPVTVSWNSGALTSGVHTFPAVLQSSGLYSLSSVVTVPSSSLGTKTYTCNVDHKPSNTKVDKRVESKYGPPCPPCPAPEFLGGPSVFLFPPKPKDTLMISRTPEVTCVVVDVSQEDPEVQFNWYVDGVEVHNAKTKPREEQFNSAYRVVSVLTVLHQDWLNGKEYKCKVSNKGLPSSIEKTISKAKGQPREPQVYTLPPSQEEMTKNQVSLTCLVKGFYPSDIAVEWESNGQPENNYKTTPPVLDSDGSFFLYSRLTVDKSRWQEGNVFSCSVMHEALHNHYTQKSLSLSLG
light: B3 light
notes: also called huP4A8-aglyG4P; hP4A8.IgG4Pagly
With B11, in [4], the off-rate constant (koff) was 0.0029 s⁻¹ and 0.0047 s⁻¹. Moreover, the association rate constant (kon) in experiment [4] is 2e+06 M⁻¹ s⁻¹ and 2.9e+06 M⁻¹ s⁻¹. In addition, the dissociation constant (Kd) in [5] was 3.4 nM and 2.2 nM. Also, the EC50 stood at 0.0721 µg/mL in experiment [6] and 0.0916 µg/mL in [7].

The record behind these values is patent US20090324602A1 (Biogen, published 2009).
